Assay results from patent US20200199204A1 (UNITED STATES OF AMERICA AS REPRESENTED BY THE SECRETARY …, published 2020).

Tests used:
Assay in all cases: cell-based or functional assay
HIV-1 Env of CAP256.PI = HIV-1 Env of CAP256.PI (HIV-1)
HIV-1 Env of CAP256.SU = HIV-1 Env of CAP256.SU (HIV-1)
HIV-1 Env of 96ZM651.02 = HIV-1 Env of 96ZM651.02 (HIV-1)
HIV-1 Env of CAP210.E8 = HIV-1 Env of CAP210.E8 (HIV-1)
HIV-1 Env of CAP244.D3 = HIV-1 Env of CAP244.D3 (HIV-1)
HIV-1 Env of CAP45.G3 = HIV-1 Env of CAP45.G3 (HIV-1)
HIV-1 Env of DU156.12 = HIV-1 Env of DU156.12 (HIV-1)
HIV-1 Env of DU172.17 = HIV-1 Env of DU172.17 (HIV-1)
HIV-1 Env of DU422.01 = HIV-1 Env of DU422.01 (HIV-1)
HIV-1 Env of ZM109.4 = HIV-1 Env of ZM109.4 (HIV-1)
HIV-1 Env of ZM135.10a = HIV-1 Env of ZM135.10a (HIV-1)
HIV-1 Env of ZM197.7 = HIV-1 Env of ZM197.7 (HIV-1)
HIV-1 Env of ZM214.15 = HIV-1 Env of ZM214.15 (HIV-1)
HIV-1 Env of ZM233.6 = HIV-1 Env of ZM233.6 (HIV-1)
HIV-1 Env of ZM249.1 = HIV-1 Env of ZM249.1 (HIV-1)
HIV-1 Env of ZM53.12 = HIV-1 Env of ZM53.12 (HIV-1)
HIV-1 Env of 0260.v5.c36 = HIV-1 Env of 0260.v5.c36 (HIV-1)
HIV-1 Env of BG505.w6m = HIV-1 Env of BG505.w6m (HIV-1)
HIV-1 Env of KER2008.12 = HIV-1 Env of KER2008.12 (HIV-1)
HIV-1 Env of KER2018.11 = HIV-1 Env of KER2018.11 (HIV-1)
HIV-1 Env of MB201 = HIV-1 Env of MB201 (HIV-1)
HIV-1 Env of MB539.2B7 = HIV-1 Env of MB539.2B7 (HIV-1)
HIV-1 Env of Q168.a2 = HIV-1 Env of Q168.a2 (HIV-1)
HIV-1 Env of Q23.17 = HIV-1 Env of Q23.17 (HIV-1)
HIV-1 Env of Q259.d2.17 = HIV-1 Env of Q259.d2.17 (HIV-1)
HIV-1 Env of Q461.e2 = HIV-1 Env of Q461.e2 (HIV-1)
HIV-1 Env of Q769.d22 = HIV-1 Env of Q769.d22 (HIV-1)
HIV-1 Env of Q842.d12 = HIV-1 Env of Q842.d12 (HIV-1)
HIV-1 Env of RW020.2 = HIV-1 Env of RW020.2 (HIV-1)
HIV-1 Env of UG037.8 = HIV-1 Env of UG037.8 (HIV-1)
HIV-1 Env of 6535.3 = HIV-1 Env of 6535.3 (HIV-1)
HIV-1 Env of AC10.29 = HIV-1 Env of AC10.29 (HIV-1)
HIV-1 Env of CAAN.A2 = HIV-1 Env of CAAN.A2 (HIV-1)
HIV-1 Env of PVO.04 = HIV-1 Env of PVO.04 (HIV-1)
HIV-1 Env of QH0692.42 = HIV-1 Env of QH0692.42 (HIV-1)
HIV-1 Env of REJO.67 = HIV-1 Env of REJO.67 (HIV-1)
HIV-1 Env of RHPA.7 = HIV-1 Env of RHPA.7 (HIV-1)
HIV-1 Env of SC422.8 = HIV-1 Env of SC422.8 (HIV-1)
HIV-1 Env of THRO.18 = HIV-1 Env of THRO.18 (HIV-1)
HIV-1 Env of TRJO.58 = HIV-1 Env of TRJO.58 (HIV-1)
HIV-1 Env of TRO.11 = HIV-1 Env of TRO.11 (HIV-1)
HIV-1 Env of WITO.33 = HIV-1 Env of WITO.33 (HIV-1)
HIV-1 Env of 191821.E6.1 = HIV-1 Env of 191821.E6.1 (HIV-1)
HIV-1 Env of 3016.V5.c36 = HIV-1 Env of 3016.V5.c36 (HIV-1)
HIV-1 Env of 6405.v4.c34 = HIV-1 Env of 6405.v4.c34 (HIV-1)
HIV-1 Env of C1080.c3 = HIV-1 Env of C1080.c3 (HIV-1)
HIV-1 Env of CM244.ec1 = HIV-1 Env of CM244.ec1 (HIV-1)
HIV-1 Env of CNE3 = HIV-1 Env of CNE3 (HIV-1)
HIV-1 Env of TH976.17 = HIV-1 Env of TH976.17 (HIV-1)
[1] = target: HIV-1 Env of strain CNE3 (clade AE), on Env-pseudovirus (HIV-1 strain CNE3)
[2] = target: HIV-1 Env of strain TH976.17 (clade AE), on Env-pseudovirus (HIV-1 strain TH976.17)

B1: CAP256-VRC26.04 (antibody, V domains shown)
VH: EVQLVESGGGVVQPGKSLRLSCAASQFSFNRYGMHWVRQAPGKGLEWVAAISYDGTDKYHADKVWGRFTISRDNSKNTLYLQMNSLRAEDTALYYCAKDLREDECEEWWSDYYDFGKQLPCRKSRGVAGIFDKWGQGTMVIVSS
VL: QPVLTQPPSVSAAPGQKVTISCSGSSSNIGNNFVSWYQQRPGTAPSLLIYETNKRPSGIPDRFSGSKSATSATLAITGLQTGDEADYYCATWAASLTSARVFGTGTKVIVSG
neutralization IC50 (HIV-1 Env of CAP256.PI): > 50 µg/mL
neutralization IC50 (HIV-1 Env of CAP256.SU): 0.003 µg/mL
neutralization IC50 (HIV-1 Env of 96ZM651.02): > 50 µg/mL
neutralization IC50 (HIV-1 Env of CAP210.E8): 0.005 µg/mL
neutralization IC50 (HIV-1 Env of CAP244.D3): > 50 µg/mL
neutralization IC50 (HIV-1 Env of CAP45.G3): > 50 µg/mL
neutralization IC50 (HIV-1 Env of DU156.12): 10.4 µg/mL
neutralization IC50 (HIV-1 Env of DU172.17): > 50 µg/mL
neutralization IC50 (HIV-1 Env of DU422.01): 4.17 µg/mL
neutralization IC50 (HIV-1 Env of ZM109.4): > 50 µg/mL
neutralization IC50 (HIV-1 Env of ZM135.10a): > 50 µg/mL
neutralization IC50 (HIV-1 Env of ZM197.7): 0.254 µg/mL
neutralization IC50 (HIV-1 Env of ZM214.15): > 50 µg/mL
neutralization IC50 (HIV-1 Env of ZM233.6): 0.06 µg/mL
neutralization IC50 (HIV-1 Env of ZM249.1): 11.4 µg/mL
neutralization IC50 (HIV-1 Env of ZM53.12): 0.004 µg/mL
neutralization IC50 (HIV-1 Env of 0260.v5.c36): > 50 µg/mL
neutralization IC50 (HIV-1 Env of BG505.w6m): 8.43 µg/mL
neutralization IC50 (HIV-1 Env of KER2008.12): > 50 µg/mL
neutralization IC50 (HIV-1 Env of KER2018.11): 0.008 µg/mL
neutralization IC50 (HIV-1 Env of MB201): > 50 µg/mL
neutralization IC50 (HIV-1 Env of MB539.2B7): > 50 µg/mL
neutralization IC50 (HIV-1 Env of Q168.a2): > 50 µg/mL
neutralization IC50 (HIV-1 Env of Q23.17): 23.6 µg/mL
neutralization IC50 (HIV-1 Env of Q259.d2.17): 0.025 µg/mL
neutralization IC50 (HIV-1 Env of Q461.e2): > 50 µg/mL
neutralization IC50 (HIV-1 Env of Q769.d22): > 50 µg/mL
neutralization IC50 (HIV-1 Env of Q842.d12): > 50 µg/mL
neutralization IC50 (HIV-1 Env of RW020.2): > 50 µg/mL
neutralization IC50 (HIV-1 Env of UG037.8): > 50 µg/mL
neutralization IC50 (HIV-1 Env of 6535.3): > 50 µg/mL
neutralization IC50 (HIV-1 Env of AC10.29): > 50 µg/mL
neutralization IC50 (HIV-1 Env of CAAN.A2): > 50 µg/mL
neutralization IC50 (HIV-1 Env of PVO.04): > 50 µg/mL
neutralization IC50 (HIV-1 Env of QH0692.42): > 50 µg/mL
neutralization IC50 (HIV-1 Env of REJO.67): > 50 µg/mL
neutralization IC50 (HIV-1 Env of RHPA.7): > 50 µg/mL
neutralization IC50 (HIV-1 Env of SC422.8): > 50 µg/mL
neutralization IC50 (HIV-1 Env of THRO.18): > 50 µg/mL
neutralization IC50 (HIV-1 Env of TRJO.58): > 50 µg/mL
neutralization IC50 (HIV-1 Env of TRO.11): > 50 µg/mL
neutralization IC50 (HIV-1 Env of WITO.33): > 50 µg/mL
neutralization IC50 (HIV-1 Env of 191821.E6.1): > 50 µg/mL
neutralization IC50 (HIV-1 Env of 3016.V5.c36): 0.283 µg/mL
neutralization IC50 (HIV-1 Env of 6405.v4.c34): > 50 µg/mL
neutralization IC50 (HIV-1 Env of C1080.c3): 0.212 µg/mL
neutralization IC50 (HIV-1 Env of CM244.ec1): 0.361 µg/mL
neutralization IC50 (HIV-1 Env of CNE3): > 50 µg/mL
neutralization IC50 (HIV-1 Env of TH976.17): > 50 µg/mL

B2: CAP256-VRC26.11 (antibody, V domains shown)
VH: EVQLVESGGGVVPPGKSLTLSCVASRFTFSAFGMHWVRQAPGKGLEWVASISFAGIKKYYADSVKGRFSISRDNSNTLFLQMNGLRGEDTGLYHCVKDMRELECEEWASDYYDFGKPQPCLDRRGVSGISAWWGPGTMVTVSS
VL: QSVLTQPPSVSAAPGQNVTISCSGPPSHIEKNDVSWYQRLPGMAPKMVIYESKRRPLGIPVRFSASRSGSSATLVITGLQTADEADYYCGTWDGRMNFGTGTTVSVLG
IC50, neutralization of Env-pseudovirus (TZM-bl assay) [1]: > 50 µg/mL
IC50, neutralization of Env-pseudovirus (TZM-bl assay) [2]: > 50 µg/mL

B3: CAP256-VRC26.07 (antibody, V domains shown)
VH: EVQLVESGGGVVQPGRSLRLSCVGSQFSFNRYGMHWVRQAPGKGLEWVAGISFDGTDRYHADNVWGRFTISRDNSKNTLYLQMSSLRAEDTALYYCAKDLREDECEEWWSDYYDFGKKLPCRKSRGVAGVFDKWGQGTMVTVSS
VL: QAVLTQPPSVSAAPGQNVTISCSGSGSNIGNNFVSWYQQRPGTAPKLLIYESNKRPSGIPDRFSGSKSGTSATLAITGLQTGDEAYYYCATWAARLNSARVFGTGTMVTVLG
IC50, neutralization of Env-pseudovirus (TZM-bl assay) [1]: > 50 µg/mL
IC50, neutralization of Env-pseudovirus (TZM-bl assay) [2]: > 50 µg/mL
